Data on six molecules can be found in patent US12679878B2, “CRF2 receptor agonists and their use in therapy” (SANOFI, priority 2020, dated 2026).

The target in this assay is human corticotropin-releasing factor 2α (CRF2 α receptor) (human), Q13324. Put plainly: cell-based or functional assay.

Starred links: 1 amine or outer side, 2 acyl side, 3 side chain; linkers in the order of their positions; H or OH if unused. Non-standard residues stand in square brackets, D forms with d. Groups on a side chain read outwards from the residue. No end group written: not given here. *: point of attachment. C18 diacid = O=C(O)CCCCCCCCCCCCCCCCC(=O)*; γGlu = O=C(O)[C@H](CCC(=O)[*:2])N[*:1]; Palmitoyl = CCCCCCCCCCCCCCCC(=O)*; AEEA = NCCOCCOCC(=O)O; Aib = CC(C)(N)C(=O)O

Chain of human corticotropin-releasing factor 2α (CRF2 α receptor) (human), Q13324 (Q13324 20-411): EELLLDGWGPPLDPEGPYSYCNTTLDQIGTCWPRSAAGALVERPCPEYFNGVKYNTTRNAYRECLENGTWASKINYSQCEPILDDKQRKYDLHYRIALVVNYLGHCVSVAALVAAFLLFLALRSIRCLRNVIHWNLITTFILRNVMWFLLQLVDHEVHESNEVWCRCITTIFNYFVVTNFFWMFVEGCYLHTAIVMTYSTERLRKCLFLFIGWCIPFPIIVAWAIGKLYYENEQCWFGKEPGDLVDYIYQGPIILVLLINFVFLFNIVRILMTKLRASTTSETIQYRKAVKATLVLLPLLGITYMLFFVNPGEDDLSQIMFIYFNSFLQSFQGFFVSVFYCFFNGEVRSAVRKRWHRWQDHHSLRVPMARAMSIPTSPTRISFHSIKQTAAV

B1: SEQ ID NO: 34 (peptide)
peptide: FTLSLDVPTKIK([AEEA-AEEA-γGlu-C18 diacid])QKLLKQEKQKKQRQKAKTNKQILEQV-NH2
modifications: N-terminus assumed
SMILES: CC[C@H](C)[C@H](NC(=O)[C@H](CCC(N)=O)NC(=O)[C@H](CCCCN)NC(=O)[C@H](CC(N)=O)NC(=O)[C@@H](NC(=O)[C@H](CCCCN)NC(=O)[C@H](C)NC(=O)[C@H](CCCCN)NC(=O)[C@H](CCC(N)=O)NC(=O)[C@H](CCCNC(=N)N)NC(=O)[C@H](CCC(N)=O)NC(=O)[C@H](CCCCN)NC(=O)[C@H](CCCCN)NC(=O)[C@H](CCC(N)=O)NC(=O)[C@H](CCCCN)NC(=O)[C@H](CCC(=O)O)NC(=O)[C@H](CCC(N)=O)NC(=O)[C@H](CCCCN)NC(=O)[C@H](CC(C)C)NC(=O)[C@H](CC(C)C)NC(=O)[C@H](CCCCN)NC(=O)[C@H](CCC(N)=O)NC(=O)[C@H](CCCCNC(=O)COCCOCCNC(=O)COCCOCCNC(=O)CC[C@H](NC(=O)CCCCCCCCCCCCCCCCC(=O)O)C(=O)O)NC(=O)[C@@H](NC(=O)[C@H](CCCCN)NC(=O)[C@@H](NC(=O)[C@@H]1CCCN1C(=O)[C@@H](NC(=O)[C@H](CC(=O)O)NC(=O)[C@H](CC(C)C)NC(=O)[C@H](CO)NC(=O)[C@H](CC(C)C)NC(=O)[C@@H](NC(=O)[C@@H](N)Cc1ccccc1)[C@@H](C)O)C(C)C)[C@@H](C)O)[C@@H](C)CC)[C@@H](C)O)C(=O)N[C@@H](CC(C)C)C(=O)N[C@@H](CCC(=O)O)C(=O)N[C@@H](CCC(N)=O)C(=O)N[C@H](C(N)=O)C(C)C
For the molecule B1, the EC50 [nM], 0% HSA turned out to be 6.88 nM.

B2: SEQ ID NO: 35 (peptide)
peptide: IVLSLDVPIKLK([AEEA-AEEA-γGlu-C18 diacid])KILLEQEKQKKQREQAETNKQILAQV-NH2
modifications: N-terminus assumed
SMILES: CC[C@H](C)[C@H](N)C(=O)N[C@H](C(=O)N[C@@H](CC(C)C)C(=O)N[C@@H](CO)C(=O)N[C@@H](CC(C)C)C(=O)N[C@@H](CC(=O)O)C(=O)N[C@H](C(=O)N1CCC[C@H]1C(=O)N[C@H](C(=O)N[C@@H](CCCCN)C(=O)N[C@@H](CC(C)C)C(=O)N[C@@H](CCCCNC(=O)COCCOCCNC(=O)COCCOCCNC(=O)CC[C@H](NC(=O)CCCCCCCCCCCCCCCCC(=O)O)C(=O)O)C(=O)N[C@@H](CCCCN)C(=O)N[C@H](C(=O)N[C@@H](CC(C)C)C(=O)N[C@@H](CC(C)C)C(=O)N[C@@H](CCC(=O)O)C(=O)N[C@@H](CCC(N)=O)C(=O)N[C@@H](CCC(=O)O)C(=O)N[C@@H](CCCCN)C(=O)N[C@@H](CCC(N)=O)C(=O)N[C@@H](CCCCN)C(=O)N[C@@H](CCCCN)C(=O)N[C@@H](CCC(N)=O)C(=O)N[C@@H](CCCNC(=N)N)C(=O)N[C@@H](CCC(=O)O)C(=O)N[C@@H](CCC(N)=O)C(=O)N[C@@H](C)C(=O)N[C@@H](CCC(=O)O)C(=O)N[C@H](C(=O)N[C@@H](CC(N)=O)C(=O)N[C@@H](CCCCN)C(=O)N[C@@H](CCC(N)=O)C(=O)N[C@H](C(=O)N[C@@H](CC(C)C)C(=O)N[C@@H](C)C(=O)N[C@@H](CCC(N)=O)C(=O)N[C@H](C(N)=O)C(C)C)[C@@H](C)CC)[C@@H](C)O)[C@@H](C)CC)[C@@H](C)CC)C(C)C)C(C)C
Consider B2, for which the EC50 [nM], 0% HSA turned out to be 0.24 nM and the EC50 [nM], 0.1% HSA stood at 3.82 nM.

B3: SEQ ID NO: 1 (peptide)
peptide: IVLSLDVPIGLK([γGlu-Palmitoyl])QILLEQEKQEKEKQQAETNAQILAQV-NH2
modifications: N-terminus assumed
SMILES: CCCCCCCCCCCCCCCC(=O)N[C@@H](CCC(=O)NCCCC[C@H](NC(=O)[C@H](CC(C)C)NC(=O)CNC(=O)[C@@H](NC(=O)[C@@H]1CCCN1C(=O)[C@@H](NC(=O)[C@H](CC(=O)O)NC(=O)[C@H](CC(C)C)NC(=O)[C@H](CO)NC(=O)[C@H](CC(C)C)NC(=O)[C@@H](NC(=O)[C@@H](N)[C@@H](C)CC)C(C)C)C(C)C)[C@@H](C)CC)C(=O)N[C@@H](CCC(N)=O)C(=O)N[C@H](C(=O)N[C@@H](CC(C)C)C(=O)N[C@@H](CC(C)C)C(=O)N[C@@H](CCC(=O)O)C(=O)N[C@@H](CCC(N)=O)C(=O)N[C@@H](CCC(=O)O)C(=O)N[C@@H](CCCCN)C(=O)N[C@@H](CCC(N)=O)C(=O)N[C@@H](CCC(=O)O)C(=O)N[C@@H](CCCCN)C(=O)N[C@@H](CCC(=O)O)C(=O)N[C@@H](CCCCN)C(=O)N[C@@H](CCC(N)=O)C(=O)N[C@@H](CCC(N)=O)C(=O)N[C@@H](C)C(=O)N[C@@H](CCC(=O)O)C(=O)N[C@H](C(=O)N[C@@H](CC(N)=O)C(=O)N[C@@H](C)C(=O)N[C@@H](CCC(N)=O)C(=O)N[C@H](C(=O)N[C@@H](CC(C)C)C(=O)N[C@@H](C)C(=O)N[C@@H](CCC(N)=O)C(=O)N[C@H](C(N)=O)C(C)C)[C@@H](C)CC)[C@@H](C)O)[C@@H](C)CC)C(=O)O
In turn, B3 displayed an EC50 [nM], 0% HSA of 0.01 nM.

B4: SEQ ID NO: 33 (peptide)
peptide: IVLSLD[dV]PTKLK([γGlu-Palmitoyl])QKLLKQERQRKEREQAEKNTRILERV-NH2
modifications: N-terminus assumed
SMILES: CCCCCCCCCCCCCCCC(=O)N[C@@H](CCC(=O)NCCCC[C@H](NC(=O)[C@H](CC(C)C)NC(=O)[C@H](CCCCN)NC(=O)[C@@H](NC(=O)[C@@H]1CCCN1C(=O)[C@H](NC(=O)[C@H](CC(=O)O)NC(=O)[C@H](CC(C)C)NC(=O)[C@H](CO)NC(=O)[C@H](CC(C)C)NC(=O)[C@@H](NC(=O)[C@@H](N)[C@@H](C)CC)C(C)C)C(C)C)[C@@H](C)O)C(=O)N[C@@H](CCC(N)=O)C(=O)N[C@@H](CCCCN)C(=O)N[C@@H](CC(C)C)C(=O)N[C@@H](CC(C)C)C(=O)N[C@@H](CCCCN)C(=O)N[C@@H](CCC(N)=O)C(=O)N[C@@H](CCC(=O)O)C(=O)N[C@@H](CCCNC(=N)N)C(=O)N[C@@H](CCC(N)=O)C(=O)N[C@@H](CCCNC(=N)N)C(=O)N[C@@H](CCCCN)C(=O)N[C@@H](CCC(=O)O)C(=O)N[C@@H](CCCNC(=N)N)C(=O)N[C@@H](CCC(=O)O)C(=O)N[C@@H](CCC(N)=O)C(=O)N[C@@H](C)C(=O)N[C@@H](CCC(=O)O)C(=O)N[C@@H](CCCCN)C(=O)N[C@@H](CC(N)=O)C(=O)N[C@H](C(=O)N[C@@H](CCCNC(=N)N)C(=O)N[C@H](C(=O)N[C@@H](CC(C)C)C(=O)N[C@@H](CCC(=O)O)C(=O)N[C@@H](CCCNC(=N)N)C(=O)N[C@H](C(N)=O)C(C)C)[C@@H](C)CC)[C@@H](C)O)C(=O)O
B4 registered an EC50 [nM], 0% HSA of 0.2 nM.

B5: SEQ ID NO: 37 (peptide)
peptide: IVLSLDVPTKLK([AEEA-AEEA-γGlu-C18 diacid])QKLLKQERQRKERQQAETNKRILERV-NH2
modifications: N-terminus assumed
SMILES: CC[C@H](C)[C@H](N)C(=O)N[C@H](C(=O)N[C@@H](CC(C)C)C(=O)N[C@@H](CO)C(=O)N[C@@H](CC(C)C)C(=O)N[C@@H](CC(=O)O)C(=O)N[C@H](C(=O)N1CCC[C@H]1C(=O)N[C@H](C(=O)N[C@@H](CCCCN)C(=O)N[C@@H](CC(C)C)C(=O)N[C@@H](CCCCNC(=O)COCCOCCNC(=O)COCCOCCNC(=O)CC[C@H](NC(=O)CCCCCCCCCCCCCCCCC(=O)O)C(=O)O)C(=O)N[C@@H](CCC(N)=O)C(=O)N[C@@H](CCCCN)C(=O)N[C@@H](CC(C)C)C(=O)N[C@@H](CC(C)C)C(=O)N[C@@H](CCCCN)C(=O)N[C@@H](CCC(N)=O)C(=O)N[C@@H](CCC(=O)O)C(=O)N[C@@H](CCCNC(=N)N)C(=O)N[C@@H](CCC(N)=O)C(=O)N[C@@H](CCCNC(=N)N)C(=O)N[C@@H](CCCCN)C(=O)N[C@@H](CCC(=O)O)C(=O)N[C@@H](CCCNC(=N)N)C(=O)N[C@@H](CCC(N)=O)C(=O)N[C@@H](CCC(N)=O)C(=O)N[C@@H](C)C(=O)N[C@@H](CCC(=O)O)C(=O)N[C@H](C(=O)N[C@@H](CC(N)=O)C(=O)N[C@@H](CCCCN)C(=O)N[C@@H](CCCNC(=N)N)C(=O)N[C@H](C(=O)N[C@@H](CC(C)C)C(=O)N[C@@H](CCC(=O)O)C(=O)N[C@@H](CCCNC(=N)N)C(=O)N[C@H](C(N)=O)C(C)C)[C@@H](C)CC)[C@@H](C)O)[C@@H](C)O)C(C)C)C(C)C
B5: the EC50 [nM], 0% HSA came out at 1.6 nM.

B6: SEQ ID NO: 36 (peptide)
peptide: IVLSLD[dV]PTKLK([AEEA-AEEA-γGlu-C18 diacid])QKLLKQERQRK[Aib]REQAEKNKRILERV-NH2
modifications: N-terminus assumed
SMILES: CC[C@H](C)[C@H](N)C(=O)N[C@H](C(=O)N[C@@H](CC(C)C)C(=O)N[C@@H](CO)C(=O)N[C@@H](CC(C)C)C(=O)N[C@@H](CC(=O)O)C(=O)N[C@@H](C(=O)N1CCC[C@H]1C(=O)N[C@H](C(=O)N[C@@H](CCCCN)C(=O)N[C@@H](CC(C)C)C(=O)N[C@@H](CCCCNC(=O)COCCOCCNC(=O)COCCOCCNC(=O)CC[C@H](NC(=O)CCCCCCCCCCCCCCCCC(=O)O)C(=O)O)C(=O)N[C@@H](CCC(N)=O)C(=O)N[C@@H](CCCCN)C(=O)N[C@@H](CC(C)C)C(=O)N[C@@H](CC(C)C)C(=O)N[C@@H](CCCCN)C(=O)N[C@@H](CCC(N)=O)C(=O)N[C@@H](CCC(=O)O)C(=O)N[C@@H](CCCNC(=N)N)C(=O)N[C@@H](CCC(N)=O)C(=O)N[C@@H](CCCNC(=N)N)C(=O)N[C@@H](CCCCN)C(=O)NC(C)(C)C(=O)N[C@@H](CCCNC(=N)N)C(=O)N[C@@H](CCC(=O)O)C(=O)N[C@@H](CCC(N)=O)C(=O)N[C@@H](C)C(=O)N[C@@H](CCC(=O)O)C(=O)N[C@@H](CCCCN)C(=O)N[C@@H](CC(N)=O)C(=O)N[C@@H](CCCCN)C(=O)N[C@@H](CCCNC(=N)N)C(=O)N[C@H](C(=O)N[C@@H](CC(C)C)C(=O)N[C@@H](CCC(=O)O)C(=O)N[C@@H](CCCNC(=N)N)C(=O)N[C@H](C(N)=O)C(C)C)[C@@H](C)CC)[C@@H](C)O)C(C)C)C(C)C
On to B6, for which the EC50 [nM], 0% HSA came out at 1.45 nM.
